{
  "source": "paper PMC2811064",
  "target": "semi-synthetic KcsA^(70,82) channel (UniProt P0A334)",
  "experiment": "SDS-PAGE",
  "data": [
    {"substance": "semi-synthetic KcsA^(70,82) channel (from UniProt P0A334 1-69; P0A334 82-160) (natural protein)", "values": [
      {"measurement": "stoichiometry N", "result": 4}
    ]}
  ]
}
